Assay results published in patent US20030186284A1.

Target: proteoglycan-type receptor-type protein tyrosine phosphatase (PTP?), mouse (mouse) (UniProt B9EKR1)
Assay: cell-based or functional assay

Chain of UniProt B9EKR1 (B9EKR1 25-2312): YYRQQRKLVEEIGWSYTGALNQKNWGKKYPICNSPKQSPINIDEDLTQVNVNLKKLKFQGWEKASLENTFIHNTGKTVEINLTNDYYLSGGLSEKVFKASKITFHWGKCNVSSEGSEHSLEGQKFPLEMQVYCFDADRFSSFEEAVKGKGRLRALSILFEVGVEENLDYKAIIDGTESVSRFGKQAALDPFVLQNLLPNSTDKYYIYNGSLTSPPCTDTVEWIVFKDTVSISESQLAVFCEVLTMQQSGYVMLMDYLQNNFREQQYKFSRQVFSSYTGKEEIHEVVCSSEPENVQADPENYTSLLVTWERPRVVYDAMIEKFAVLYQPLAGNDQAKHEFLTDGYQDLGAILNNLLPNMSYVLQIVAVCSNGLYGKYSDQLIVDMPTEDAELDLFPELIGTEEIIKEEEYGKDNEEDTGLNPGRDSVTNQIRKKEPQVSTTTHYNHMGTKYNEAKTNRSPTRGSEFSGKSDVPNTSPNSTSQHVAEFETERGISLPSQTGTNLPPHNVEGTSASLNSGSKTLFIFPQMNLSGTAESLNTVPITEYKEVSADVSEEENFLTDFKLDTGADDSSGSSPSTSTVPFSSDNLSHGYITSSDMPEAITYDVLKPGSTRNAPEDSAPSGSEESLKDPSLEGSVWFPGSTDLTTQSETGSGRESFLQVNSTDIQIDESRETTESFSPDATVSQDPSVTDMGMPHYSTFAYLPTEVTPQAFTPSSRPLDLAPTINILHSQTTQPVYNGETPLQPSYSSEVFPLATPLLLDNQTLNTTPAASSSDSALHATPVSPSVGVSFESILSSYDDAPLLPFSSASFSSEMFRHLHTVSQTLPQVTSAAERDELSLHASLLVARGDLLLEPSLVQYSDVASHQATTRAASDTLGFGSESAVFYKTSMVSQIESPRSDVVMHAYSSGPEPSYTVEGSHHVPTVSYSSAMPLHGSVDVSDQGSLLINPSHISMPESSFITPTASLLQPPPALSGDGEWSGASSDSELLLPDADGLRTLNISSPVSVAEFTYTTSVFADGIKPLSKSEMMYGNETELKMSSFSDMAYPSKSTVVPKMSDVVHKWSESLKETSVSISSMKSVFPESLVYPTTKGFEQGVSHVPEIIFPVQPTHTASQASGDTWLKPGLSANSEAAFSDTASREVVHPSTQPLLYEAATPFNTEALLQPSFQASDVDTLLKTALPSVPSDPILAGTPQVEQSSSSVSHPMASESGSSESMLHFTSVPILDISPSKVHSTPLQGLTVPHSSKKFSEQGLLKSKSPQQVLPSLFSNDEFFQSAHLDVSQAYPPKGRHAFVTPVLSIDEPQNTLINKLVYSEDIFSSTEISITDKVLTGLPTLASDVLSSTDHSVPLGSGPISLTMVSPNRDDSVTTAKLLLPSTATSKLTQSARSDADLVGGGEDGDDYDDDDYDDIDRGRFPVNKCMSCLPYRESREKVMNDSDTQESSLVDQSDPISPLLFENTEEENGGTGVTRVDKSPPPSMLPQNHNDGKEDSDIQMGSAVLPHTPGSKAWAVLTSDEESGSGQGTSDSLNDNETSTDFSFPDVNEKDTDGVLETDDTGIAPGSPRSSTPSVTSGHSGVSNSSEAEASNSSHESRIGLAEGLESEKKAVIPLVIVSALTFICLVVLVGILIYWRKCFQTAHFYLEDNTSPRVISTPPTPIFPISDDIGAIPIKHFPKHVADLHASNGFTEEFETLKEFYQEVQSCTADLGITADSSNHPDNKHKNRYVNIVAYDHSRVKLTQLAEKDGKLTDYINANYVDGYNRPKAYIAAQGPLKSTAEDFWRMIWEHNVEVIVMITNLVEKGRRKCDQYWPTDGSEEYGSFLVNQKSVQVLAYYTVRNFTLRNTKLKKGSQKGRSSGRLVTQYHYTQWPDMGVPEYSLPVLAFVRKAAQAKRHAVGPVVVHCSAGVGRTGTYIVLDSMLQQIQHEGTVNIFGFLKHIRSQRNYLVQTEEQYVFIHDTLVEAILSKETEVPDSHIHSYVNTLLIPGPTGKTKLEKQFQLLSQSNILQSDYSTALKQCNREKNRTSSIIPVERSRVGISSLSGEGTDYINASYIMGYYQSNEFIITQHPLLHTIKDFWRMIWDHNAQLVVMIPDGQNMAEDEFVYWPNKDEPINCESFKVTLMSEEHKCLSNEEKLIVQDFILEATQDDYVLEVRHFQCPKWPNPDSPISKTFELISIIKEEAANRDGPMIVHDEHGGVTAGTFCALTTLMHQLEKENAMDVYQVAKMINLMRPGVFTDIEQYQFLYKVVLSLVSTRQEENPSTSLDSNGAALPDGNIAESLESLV

Substance: VacA, a toxin of Helicobacter pylori (ligand)
- epithelial damage score (EDS), wild-type (PTP?+/+) mice, VacA 0.125 mg/kg (score (scale 1-4)): 1.8
- epithelial damage score (EDS), wild-type (PTP?+/+) mice, VacA 0.250 mg/kg (score (scale 1-4)): 2.2
- inflammation score (IS), wild-type (PTP?+/+) mice, VacA 0.125 mg/kg (score (scale 1-4)): 1.4
- inflammation score (IS), wild-type (PTP?+/+) mice, VacA 0.250 mg/kg (score (scale 1-4)): 1.4
